Data set [1] deals with T1, interaction between GST-p6 and myc-Tsg101(1-207) (Homo sapiens, UniProt Q99816).
T1 construct: Drosophila S2 cell lysate myc-tagged Tsg101 (residues 1–207); made in house; host or cells: Drosophila S2 cells (used as lysate)
T1 sequence (Q99816 1-207): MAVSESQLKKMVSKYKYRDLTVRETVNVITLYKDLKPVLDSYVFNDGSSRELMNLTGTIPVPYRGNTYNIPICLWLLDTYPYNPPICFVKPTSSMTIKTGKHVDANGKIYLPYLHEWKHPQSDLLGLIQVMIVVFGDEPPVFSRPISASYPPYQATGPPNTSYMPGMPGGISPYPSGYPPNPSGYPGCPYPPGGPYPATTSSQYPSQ
The experiment in a line: In vitro binding assay: competition of p6(1-14) with GST-p6 for myc-Tsg101(1-207). How it is done:
A fusion protein with a GST tag fused to the HIV-1 GAGp6 domain was recombinantly expressed and purified by chromatography. In addition, a GAGp6 peptide containing the first 14 amino acid residues (“p6(1–14)”) was synthesized chemically by standard peptide synthesis methods. The peptide was purified by conventional protein purification techniques, e.g., by chromatography.
Nunc/Nalgene Maxisorp plates were incubated overnight at 4° C. or for 1–2 hrs at room temperature in 100 μl of a protein coupling solution containing purified GST-p6 and 50 mM Carbonate, pH=9.6. This allowed the attachment of the GST-p6 fusion protein to the plates. Liquids in the plates were then emptied and wells filled with 400 μl/well of a blocking buffer (SuperBlock; Pierce-Endogen, Rockford, Ill.). […]
Plates were then washed 4×100 μl with 1× PBST solution (Invitrogen; Carlsbad, Calif.). […] Plates were then read on a Packard Fusion instrument at an excitation wavelength of 325 nm and an emission wavelength of 420 nm. […]
Different concentrations of the p6(1–14) peptide were tested, and the relative intensities of the fluorescence signals obtained at different concentrations were plotted against the peptide concentrations. […]

For data set [2], the target named is T2, Tsg101 (Homo sapiens, UniProt Q99816).
T2 construct: expressed in transfected cells; host or cells: Saccharomyces cerevisiae strain Y189
T2 sequence (Q99816 1-390): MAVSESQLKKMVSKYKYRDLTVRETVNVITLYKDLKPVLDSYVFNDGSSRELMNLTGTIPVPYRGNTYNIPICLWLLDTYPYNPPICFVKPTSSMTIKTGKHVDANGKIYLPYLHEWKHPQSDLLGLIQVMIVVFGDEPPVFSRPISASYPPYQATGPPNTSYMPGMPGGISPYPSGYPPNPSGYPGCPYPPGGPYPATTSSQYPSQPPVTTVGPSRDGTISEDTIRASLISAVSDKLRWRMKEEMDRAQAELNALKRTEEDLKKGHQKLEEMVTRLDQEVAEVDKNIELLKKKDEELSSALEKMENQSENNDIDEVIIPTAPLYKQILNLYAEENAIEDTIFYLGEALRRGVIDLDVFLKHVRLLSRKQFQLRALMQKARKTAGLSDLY
As to the kind of experiment: Yeast two-hybrid filter lift assay for β-Gal activity (Tsg101 / GAGp6 interaction). The arrangement: key to Interactions Between Tsg101 and GAGp6 (β-Gal activity, filter lift): +: Positive β-Gal activity indicates that the GAGp6 wild type or mutant protein interacts with Tsg101. The settings on record: for ability to bind Tsg101 protein (in words): yeast two-hybrid, GAGp6 point mutants. It is filed as cell-based. From the text: Yeast two-hybrid assays were utilized to determine the effect of amino acid substitution mutations in the PTAP motif of HIV GAGp6 on the interaction between Tsg101 and GAGp6. To prepare a yeast two-hybrid activation domain-Tsg101 construct, a DNA fragment encompassing the full-length coding sequence for Tsg101 according to GenBank Accession No. U82130 was obtained by PCR from a human fetal brain cDNA library and cloned into the EcoRI/Pst1 sites of the activation domain parent plasmid GADpN2 (LEU2, CEN4, ARS1, ADH1p-SV40NLS-GAL4 (768–881)-MCS (multiple cloning site)-PGK1t, AmpR, ColE1_ori).
To prepare the yeast two-hybrid DNA binding domain-HIV1 GAGp6 construct, a DNA fragment corresponding to the HIV1 GAGp6 peptide derived from the HIV1.NL43 strain GAG protein was obtained by PCR from the NL43 containing plasmid R9≢apa and was cloned into the EcoRI/Sal1 sites of the binding domain parent plasmid pGBT.Q.
The following amino acid substitution mutations were introduced by PCR into the HIV1 GAGp6 sequence in the yeast two-hybrid binding domain-HIV1 GAGp6 construct described above. The mutations were verified by DNA sequence analysis.
To test the effect of the mutations, yeast cells of the strain Y189 purchased from Clontech (ura3-52 his3*200 ade2-101 trp1-901 leu2-3,112 met gal4 gal80 URA3::GAL1p-lacZ) were co-transformed with the activation domain-Tsg101 construct and one of the binding domain-mutant GAGp6 constructs or the binding domain-wild type GAGp6 construct. Filter lift assays for β-Gal activity were conducted by lifting the transformed yeast colonies with filters, lysing the yeast cells by freezing and thawing, and contacting the lysed cells with X-Gal. […] All binding domain constructs were also tested for self-activation of β-Gal activity.

Data set [3] addresses T3, Full length Tsg101 (Homo sapiens, UniProt Q99816).
T3 construct: expressed in transfected cells; host or cells: Saccharomyces cerevisiae strain Y189
T3 sequence (Q99816 1-390): T2 sequence (Q99816 1-390)
The experiment in a line: Two-hybrid liquid culture β-galactosidase assay. The class given is cell-based. The note with it: p6 point mutants. As to the method:
The interactions between Tsg101 and wild-type GAGp6 (WT) or the GAGp6 PTAP mutants were further quantitated by performing liquid culture β-galactosidase assays. Cultures were grown overnight in synthetic media (−Leu, −Trp, +glucose) in 96 well plates, normalized for optical density, and lysed by addition of 6× lysis/substrate solution in 6× Z-buffer (60 mM KCl, 6 mM MgSO4, 360 mM Na2HPO4, 240 mM NaH2PO4, 6 mg/ml CPRG, 0.12U/ml lyticase, 0.075% NP-40). Cultures were incubated for 2 hr at 37° C., clarified by centrifugation, and the optical absorbance of each supernatant was measured (575 nm). Full length Tsg101 bound wild-type p6 in the two-hybrid liquid culture assay, resulting in high levels of β-galactosidase activity (>300-fold over background). […] Each of these point mutations also arrests HIV-1 budding at a late stage (Huang et al. 1995).

For data set [4], the target named is ROCK1 (Homo sapiens, UniProt Q13464). The settings on record: cited from earlier work.
ROCK1, sequence (Q13464 whole entry): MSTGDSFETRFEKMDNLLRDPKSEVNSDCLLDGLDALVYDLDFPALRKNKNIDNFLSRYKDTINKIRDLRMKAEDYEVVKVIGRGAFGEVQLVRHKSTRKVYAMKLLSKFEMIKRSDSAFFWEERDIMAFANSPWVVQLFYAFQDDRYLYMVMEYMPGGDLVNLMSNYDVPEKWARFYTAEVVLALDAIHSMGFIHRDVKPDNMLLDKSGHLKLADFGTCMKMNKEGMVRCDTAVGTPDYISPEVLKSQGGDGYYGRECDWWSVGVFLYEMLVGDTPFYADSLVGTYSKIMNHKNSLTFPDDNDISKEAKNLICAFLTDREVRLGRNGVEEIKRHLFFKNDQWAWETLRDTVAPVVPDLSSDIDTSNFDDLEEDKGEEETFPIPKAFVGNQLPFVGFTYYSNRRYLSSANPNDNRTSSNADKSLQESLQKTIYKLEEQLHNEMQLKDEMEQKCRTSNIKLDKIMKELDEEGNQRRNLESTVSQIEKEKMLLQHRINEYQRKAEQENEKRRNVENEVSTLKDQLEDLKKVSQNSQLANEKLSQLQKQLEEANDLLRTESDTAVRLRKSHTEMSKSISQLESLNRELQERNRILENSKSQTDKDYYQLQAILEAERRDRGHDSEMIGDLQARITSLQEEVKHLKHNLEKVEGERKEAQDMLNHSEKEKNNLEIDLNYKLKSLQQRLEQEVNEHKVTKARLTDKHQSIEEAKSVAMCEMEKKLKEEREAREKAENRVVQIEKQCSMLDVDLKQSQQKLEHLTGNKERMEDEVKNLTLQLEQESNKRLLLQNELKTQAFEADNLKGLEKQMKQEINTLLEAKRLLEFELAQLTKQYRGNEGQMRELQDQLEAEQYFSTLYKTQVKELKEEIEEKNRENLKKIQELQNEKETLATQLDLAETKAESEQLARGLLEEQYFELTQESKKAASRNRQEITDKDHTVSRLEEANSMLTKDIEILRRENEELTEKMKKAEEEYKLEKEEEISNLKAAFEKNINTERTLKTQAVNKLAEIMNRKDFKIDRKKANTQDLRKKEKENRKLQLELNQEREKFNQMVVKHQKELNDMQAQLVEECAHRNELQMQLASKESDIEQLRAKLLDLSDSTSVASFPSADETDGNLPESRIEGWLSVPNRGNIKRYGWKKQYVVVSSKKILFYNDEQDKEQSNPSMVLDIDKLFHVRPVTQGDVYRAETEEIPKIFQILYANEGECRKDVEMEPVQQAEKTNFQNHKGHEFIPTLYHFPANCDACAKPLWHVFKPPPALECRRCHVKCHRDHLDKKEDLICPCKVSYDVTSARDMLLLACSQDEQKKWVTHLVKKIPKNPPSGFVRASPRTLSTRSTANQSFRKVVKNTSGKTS

Turning to “p6(1-14): chemically synthesized GAGp6 peptide containing the first 14 amino acid residues, includes the PTAP late domain motif (LQSRPEPTAPPEES)”, the “inhibition of protein-protein interaction between GST-p6 and myc-Tsg101(1-207)” value in data set [1] (competitive inhibition curve, FIG. 2) was “capable of inhibiting”. Besides, the “binding to the N-terminal portion of Tsg101 (amino acid residues 1–207)” value in data set [1] (includes the Tsg101 UEV domain) is recorded as “sufficient in binding”.
On to “P6/A9R (LQSRPEPTRPPEESFRFGEETTTPSQKQEPIDKELYPLASLRSLFGSDPSSQ; left off: large carriers; small tags and cut ends)”, for which the “ability to bind Tsg101 protein (in words)” value (from here on “ability”) in data set [2] is “abolishes the GAGp6 binding affinity to Tsg101”. Also, the “β-galactosidase activity (in words)” value in data set [3] is reported as “reduced β-galactosidase activity to background levels”.
The matching figures for “P6/P10L (LQSRPEPTALPEESFRFGEETTTPSQKQEPIDKELYPLASLRSLFGSDPSSQ; left off: large carriers; small tags and cut ends)”: “abolishes the GAGp6 binding affinity to Tsg101” and “reduced β-galactosidase activity to background levels”.
On to `C[C@@H](N)[C@H]1CC[C@H](C(=O)Nc2ccncc2)CC1` [Y-27632, (+)-(R)-trans-4-(1-aminoethyl)-N-(4-pyridyl) cyclohexanecarboxamide], for which the “selectivity for ROCK1” value in data set [4] was “highly selective for ROCK1”.
Regarding “P6/P7L (LQSRPELTAPPEESFRFGEETTTPSQKQEPIDKELYPLASLRSLFGSDPSSQ; left off: large carriers; small tags and cut ends)”, the “ability” value in data set [2] is on record as “abolishes the GAGp6 binding affinity to Tsg101”. Further, in data set [3], the “β-galactosidase activity (in words)” value is given as “reduced β-galactosidase activity to background levels”.
Turning to “P6/E6G (LQSRPGPTAPPEESFRFGEETTTPSQKQEPIDKELYPLASLRSLFGSDPSSQ; left off: large carriers; small tags and cut ends)”, the “Interactions Between Tsg101 and GAGp6 (β-Gal activity, filter lift)” value in data set [2] (yeast strain Y189 co-transformed with activation domain-Tsg101 construct and binding domain-GAGp6 construct) was “+”. The “ability” value is on record as “did not result in the elimination of the Tsg101-GAGp6 interaction” in data set [2] and “capable of binding Tsg101 protein” in data set [2] (listed as E6G GAGp6 mutant).

Values taken from patent US7202329B2, “Tsg101-GAGp6 interaction and use thereof” (priority 2001, dated 2007).
